The record followed here is article PMC4638388 (Biochimica et biophysica acta, 2015).

Assay [1] deals with T1, GST-tagged α4 repeat region of α-spectrin (human, UniProt P02549 370-475).
T1 sequence (looked up): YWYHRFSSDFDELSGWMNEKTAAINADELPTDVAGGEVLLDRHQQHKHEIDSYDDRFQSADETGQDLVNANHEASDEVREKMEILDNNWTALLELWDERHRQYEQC
The experiment in a line: SPR. On the technique in general: Surface plasmon resonance follows binding to a sensor surface in real time, without labels.

Assay [2] deals with GST-tagged 16 kDa domain of protein 4.1R (human). As to the kind of experiment: SPR.
Chain of GST-tagged 16 kDa domain of protein 4.1R (human) (P11171 whole entry, the tested form may be a part): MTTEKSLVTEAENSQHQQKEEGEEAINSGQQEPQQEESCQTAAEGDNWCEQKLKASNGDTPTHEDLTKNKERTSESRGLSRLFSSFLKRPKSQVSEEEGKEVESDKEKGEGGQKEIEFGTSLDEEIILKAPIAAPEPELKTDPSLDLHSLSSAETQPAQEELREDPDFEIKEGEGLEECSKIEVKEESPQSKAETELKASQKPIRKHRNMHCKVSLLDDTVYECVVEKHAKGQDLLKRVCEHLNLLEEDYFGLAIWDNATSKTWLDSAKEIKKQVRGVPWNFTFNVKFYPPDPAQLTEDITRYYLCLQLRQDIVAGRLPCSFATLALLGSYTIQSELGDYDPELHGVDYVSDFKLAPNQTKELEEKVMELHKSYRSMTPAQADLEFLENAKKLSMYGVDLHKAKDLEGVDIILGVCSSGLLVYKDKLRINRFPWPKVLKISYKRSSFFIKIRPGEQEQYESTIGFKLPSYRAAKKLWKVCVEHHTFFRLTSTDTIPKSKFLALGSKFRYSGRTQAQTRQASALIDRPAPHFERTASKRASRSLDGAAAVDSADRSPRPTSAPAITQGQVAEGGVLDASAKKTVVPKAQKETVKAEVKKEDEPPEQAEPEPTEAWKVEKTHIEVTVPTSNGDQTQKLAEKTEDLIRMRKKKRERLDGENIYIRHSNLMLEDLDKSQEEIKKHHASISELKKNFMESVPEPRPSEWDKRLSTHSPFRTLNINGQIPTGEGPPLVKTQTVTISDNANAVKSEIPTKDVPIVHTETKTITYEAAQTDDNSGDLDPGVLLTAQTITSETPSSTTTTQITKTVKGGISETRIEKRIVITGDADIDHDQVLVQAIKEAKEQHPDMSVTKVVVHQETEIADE

B1: SBP1-C (analyte of the surface plasmon resonance) (domain or fragment)
chain: GKRKGYYLAKKQKKEQMLEQNPEQNPEQNPEQNAQQNAQQNAQQNAQQNSQQNTQQNTQQNTQQKTQQNPQQNAQKTHNNNPQPNPQQKQLLEKPKDKLL
Broadly, the Kd is the constant that tells how readily two partners part at equilibrium. A higher Kd goes with weaker binding. Usually koff stands for the rate constant with which the complex falls apart. A high value points to fast dissociation. In assay [1], B1 gave a Ka of 5.7e+07 ± 1.28 M⁻¹, a Kd of 0.0204 µM and a koff of 0.00031 ± 0.42 s⁻¹. In assay [2], this molecule returned a Ka of 1.73e+07 M⁻¹, a Kd of 0.0585 µM and a koff of 0.000459 s⁻¹.
